Source: publication PMC4828686
Several values for one entry are separate records, joined by “and”; a condition that tells them apart may be missing. Equal entries are not always repeated.

Legend:
[1] = target: Actin, purified (rabbit skeletal muscle; Cytoskeleton, Inc.) (rabbit) (UniProt P68135); test: co-sedimentation
[2] = target: Actin mutant that cannot polymerize (G-actin mimetic; Joel et al., 2004); test: SPR
[3] = target: Actin, purified (rabbit skeletal muscle; Cytoskeleton, Inc.) (rabbit) (UniProt P68135); test: SPR
[4] = target: Actin, purified (rabbit skeletal muscle; Cytoskeleton, Inc.) (rabbit) (UniProt P68135); test: ELISA
[5] = target: GST-fused full-length kindlin-2 LK47/AA mutant (GST-K2LK47/AA) (human) (UniProt Q96AC1); test: pull-down

percent of the added protein in the actin pellet [1]	Kd [3]	Substance	further results
52%	–	α-actinin (natural protein)	–
–	136 nM and 190 nM	GST-fused full-length kindlin-2 (GST-K2) (from UniProt Q96AC1 1-680) (natural protein)	Kd [2]: 124 nM
–	982 nM and 1580 nM	GST-fused full-length kindlin-2 LK47/AA mutant (GST-K2LK47/AA) (from UniProt Q96AC1 1-680) (natural protein)	fold difference of the relative Kd against WT K2 [4]: 3 fold and 5 fold
–	–	Actin, purified (rabbit skeletal muscle; Cytoskeleton, Inc.) (from UniProt P68135 1-377) (natural protein)	mean percent less actin pulled down than by WT K2 [5]: 75%
36% and 30% to 54% (2×)	–	Full-length kindlin-2 (K2), GST tag removed by Factor Xa (from UniProt Q96AC1 1-680) (natural protein)	–
